Source: the supplement of paper PMC9732359
± gives the uncertainty stated by the source.

Experiment: protein stability index of a GFP-peptide fusion (yeast GPS) (PSI 1-4); higher = more stable; sorted into four equal gates, so the index is relative within each strain
Method in brief: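 The protein stability index combines read frequencies across sorting gates, each weighted by its gate number and then summed. To obtain those frequencies, a pooled yeast library of GFP fusions to tiled 17-residue yeast protein peptides, on a plasmid also expressing Cherry, was grown to mid-log phase in leucine-free medium. The cells were sorted into four equal gates by GFP/Cherry ratio before plasmid amplification by PCR and Illumina sequencing.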

## ASAKSVRSGVSKSAPSK [YAR002W/NUP60]
doa10∆
  protein stability index: 2.96 ± 0.078
pdr5∆
  protein stability index: 2.92 ± 0.1
san1∆
  protein stability index: 2.96 ± 0.064
ubr1∆
  protein stability index: 2.99 ± 0.056

## LNHRNKNQHRAASWYGS [RMP1]
doa10∆
  protein stability index: 2.86 ± 0.092
pdr5∆
  protein stability index: 3.31 ± 0.07
san1∆
  protein stability index: 3.17 ± 0.056
ubr1∆
  protein stability index: 3.06 ± 0.044

## HDISRYVRAKFLDYTTD [PRP8]
doa10∆
  protein stability index: 2.23 ± 0.066
pdr5∆
  protein stability index: 1.99 ± 0.088
san1∆
  protein stability index: 1.83 ± 0.12
ubr1∆
  protein stability index: 2.54 ± 0.089

## FGQDVSPMINSTSSGKV [SNM1]
doa10∆
  protein stability index: 2.81 ± 0.1
pdr5∆
  protein stability index: 3.32 ± 0.077
san1∆
  protein stability index: 2.74 ± 0.067
ubr1∆
  protein stability index: 3.02 ± 0.057

## KHGAVHMSTYLKIYKVG [RPL21B]
doa10∆
  protein stability index: 1.65 ± 0.042
pdr5∆
  protein stability index: 1.52 ± 0.043
san1∆
  protein stability index: 1.9 ± 0.062
ubr1∆
  protein stability index: 1.74 ± 0.054

## NTVDGDLLKLVHLSNGY [FAS1]
doa10∆
  protein stability index: 2.86 ± 0.07
pdr5∆
  protein stability index: 2.52 ± 0.056
san1∆
  protein stability index: 2.31 ± 0.076
ubr1∆
  protein stability index: 2.46 ± 0.064

## FIKVVNYNHLLPTRYTL [RPL27A]
doa10∆
  protein stability index: 2.34 ± 0.06
pdr5∆
  protein stability index: 2.25 ± 0.076
san1∆
  protein stability index: 2.07 ± 0.098
ubr1∆
  protein stability index: 2.18 ± 0.067

## NIKIDAKPALFERFINA [MCD1]
doa10∆
  protein stability index: 1.76 ± 0.053
pdr5∆
  protein stability index: 2.8 ± 0.095
san1∆
  protein stability index: 2.3 ± 0.1
ubr1∆
  protein stability index: 2.03 ± 0.066

## SAWIWPMDEETKLYFDV [RPC25]
doa10∆
  protein stability index: 2.17 ± 0.075
pdr5∆
  protein stability index: 2.4 ± 0.11
san1∆
  protein stability index: 2.49 ± 0.092
ubr1∆
  protein stability index: 2.41 ± 0.15

## SYFLQERYFDCCTKFFT [PCI8]
doa10∆
  protein stability index: 1.54 ± 0.069
pdr5∆
  protein stability index: 1.52 ± 0.059
san1∆
  protein stability index: 1.76 ± 0.08
ubr1∆
  protein stability index: 2.13 ± 0.044

## SLEGCVEMAWIMGFISY [FAS2]
doa10∆
  protein stability index: 1.97 ± 0.084
pdr5∆
  protein stability index: 1.86 ± 0.061
san1∆
  protein stability index: 2.35 ± 0.086
ubr1∆
  protein stability index: 2.27 ± 0.078

## ISVIETIRVVTENKIFV [RPN5]
doa10∆
  protein stability index: 1.6 ± 0.14
pdr5∆
  protein stability index: 1.82 ± 0.1
san1∆
  protein stability index: 1.9 ± 0.27
ubr1∆
  protein stability index: 2.03 ± 0.093

## RTKSQVIEEDYDDEQNT [IRR1]
doa10∆
  protein stability index: 2.4 ± 0.071
pdr5∆
  protein stability index: 2.83 ± 0.15
san1∆
  protein stability index: 2.38 ± 0.099
ubr1∆
  protein stability index: 1.83 ± 0.16

## ITLVEPEILRFKVYEPL [RPS16A]
pdr5∆
  protein stability index: 3.25 ± 0.21
san1∆
  protein stability index: 2.54 ± 0.22
ubr1∆
  protein stability index: 2.75 ± 0.074

## ITHPGKMELVYVSDSDD [SIR4]
doa10∆
  protein stability index: 3.24 ± 0.077
pdr5∆
  protein stability index: 3.34 ± 0.075
san1∆
  protein stability index: 3.31 ± 0.085
ubr1∆
  protein stability index: 3.25 ± 0.073

## QTGIFVYQNNITPSAMK [RPB5]
doa10∆
  protein stability index: 3.06 ± 0.091
pdr5∆
  protein stability index: 2.55 ± 0.16
san1∆
  protein stability index: 3.11 ± 0.075
ubr1∆
  protein stability index: 3.36 ± 0.12

## IESDSILNLLNILTTHL [ECM29]
doa10∆
  protein stability index: 2.39 ± 0.043
pdr5∆
  protein stability index: 2.02 ± 0.046
san1∆
  protein stability index: 1.75 ± 0.049
ubr1∆
  protein stability index: 2.32 ± 0.049

## KFKDMGIRAPKGALMYG [RPT5]
doa10∆
  protein stability index: 3.01 ± 0.13
pdr5∆
  protein stability index: 3.46 ± 0.19
san1∆
  protein stability index: 3.17 ± 0.21
ubr1∆
  protein stability index: 3.4 ± 0.18

## RGNTKIHSMNENPTPEK [SIR3]
doa10∆
  protein stability index: 3.11 ± 0.085
pdr5∆
  protein stability index: 3.15 ± 0.11
san1∆
  protein stability index: 3.08 ± 0.056
ubr1∆
  protein stability index: 3.31 ± 0.067

## ETLVLDEADKMIDLGFE [PRP28]
doa10∆
  protein stability index: 3.18 ± 0.094
pdr5∆
  protein stability index: 3.22 ± 0.12
san1∆
  protein stability index: 3.31 ± 0.088
ubr1∆
  protein stability index: 3.08 ± 0.056

## SADCELLGIDATVPSGR [RPO31]
pdr5∆
  protein stability index: 3.06 ± 0.18
ubr1∆
  protein stability index: 3.32 ± 0.081

## HLVWMKGTNDEGTSISV [YCS4]
doa10∆
  protein stability index: 1.84 ± 0.11
pdr5∆
  protein stability index: 2.23 ± 0.086
san1∆
  protein stability index: 1.9 ± 0.18
ubr1∆
  protein stability index: 2.2 ± 0.17

## KLFVSKEHAPYTDELEE [FAS2]
pdr5∆
  protein stability index: 1.61 ± 0.12
san1∆
  protein stability index: 1.56 ± 0.28
ubr1∆
  protein stability index: 1.83 ± 0.15

## GNILDFNLNLPPSSFGR [REC8]
doa10∆
  protein stability index: 3.04 ± 0.075
pdr5∆
  protein stability index: 3.24 ± 0.15
san1∆
  protein stability index: 3.03 ± 0.055
ubr1∆
  protein stability index: 2.94 ± 0.1

## SDERAKLELINRYAYVL [LRP1]
doa10∆
  protein stability index: 2.55 ± 0.067
pdr5∆
  protein stability index: 3.17 ± 0.16
san1∆
  protein stability index: 2.79 ± 0.11
ubr1∆
  protein stability index: 2.93 ± 0.15

## KNDDNSCRNPEHTDVID [YIL149C/MLP2]
doa10∆
  protein stability index: 3.03 ± 0.15
pdr5∆
  protein stability index: 2.75 ± 0.099
san1∆
  protein stability index: 2.98 ± 0.093
ubr1∆
  protein stability index: 2.97 ± 0.086

## SPDGRNFQVEYAVKAVE [PRE10]
doa10∆
  protein stability index: 2.8 ± 0.079
pdr5∆
  protein stability index: 2.81 ± 0.077
san1∆
  protein stability index: 2.65 ± 0.07
ubr1∆
  protein stability index: 2.37 ± 0.085

## LTPNEIKELEHLHDAVF [SWP82]
doa10∆
  protein stability index: 2.95 ± 0.072
pdr5∆
  protein stability index: 3.18 ± 0.075
san1∆
  protein stability index: 3.13 ± 0.055
ubr1∆
  protein stability index: 2.95 ± 0.052

## KVKILEQIDENWSKEDL [SWI3]
doa10∆
  protein stability index: 3.12 ± 0.079
pdr5∆
  protein stability index: 2.92 ± 0.091
san1∆
  protein stability index: 2.88 ± 0.097
ubr1∆
  protein stability index: 2.89 ± 0.091

## SYIGTIIVKDKSNDSEG [POP1]
doa10∆
  protein stability index: 1.4 ± 0.1
pdr5∆
  protein stability index: 1.44 ± 0.052
san1∆
  protein stability index: 1.45 ± 0.093
ubr1∆
  protein stability index: 1.35 ± 0.093

## ALVYSYIEASGREGIWS [RPC34]
doa10∆
  protein stability index: 3.13 ± 0.24
pdr5∆
  protein stability index: 2.87 ± 0.24
san1∆
  protein stability index: 2.28 ± 0.17
ubr1∆
  protein stability index: 2.52 ± 0.11

## GIFEKAKAKAVTSKVRN [YMR153W/NUP53]
doa10∆
  protein stability index: 2.24 ± 0.1
pdr5∆
  protein stability index: 2.59 ± 0.26
san1∆
  protein stability index: 2.51 ± 0.15
ubr1∆
  protein stability index: 2.38 ± 0.085

## TFGTKHAADSQNNKPSF [YLR335W/NUP2]
doa10∆
  protein stability index: 3.16 ± 0.22
san1∆
  protein stability index: 3.18 ± 0.17
ubr1∆
  protein stability index: 3.05 ± 0.2

## SPIGFTNSPQISVTRQV [SMC2]
doa10∆
  protein stability index: 2.92 ± 0.052
pdr5∆
  protein stability index: 3.09 ± 0.047
san1∆
  protein stability index: 2.95 ± 0.043
ubr1∆
  protein stability index: 2.79 ± 0.034

## IAKLVAVLNVSPVYDVD [NUT1]
doa10∆
  protein stability index: 1.84 ± 0.056
pdr5∆
  protein stability index: 2.05 ± 0.046
san1∆
  protein stability index: 1.7 ± 0.084
ubr1∆
  protein stability index: 1.75 ± 0.043

## KKYLKKNQLRDWIRFVS [RPL22A]
doa10∆
  protein stability index: 1.8 ± 0.06
pdr5∆
  protein stability index: 1.68 ± 0.062
san1∆
  protein stability index: 1.2 ± 0.14
ubr1∆
  protein stability index: 1.12 ± 0.09

## ATEKKSSSPLAMSETLS [PRE8]
doa10∆
  protein stability index: 2.33 ± 0.076
pdr5∆
  protein stability index: 2.77 ± 0.068
san1∆
  protein stability index: 2.44 ± 0.1
ubr1∆
  protein stability index: 2.39 ± 0.055

## ELDSKTRKILEILNECH [MED4]
doa10∆
  protein stability index: 3.21 ± 0.074
pdr5∆
  protein stability index: 3.22 ± 0.06
san1∆
  protein stability index: 3.27 ± 0.037
ubr1∆
  protein stability index: 3.21 ± 0.043

## DQAIVTETKRLVVIRFG [DIB1]
doa10∆
  protein stability index: 2 ± 0.071
pdr5∆
  protein stability index: 2.23 ± 0.062
san1∆
  protein stability index: 2.03 ± 0.1
ubr1∆
  protein stability index: 2.45 ± 0.067

## MKHLGRSEGNPVIGVFQ [FAS2]
pdr5∆
  protein stability index: 2.78 ± 0.08
san1∆
  protein stability index: 2.9 ± 0.094
ubr1∆
  protein stability index: 3.01 ± 0.093

## MVLRKQKRYTVKKALAK [RPL14A]
doa10∆
  protein stability index: 2.08 ± 0.14
pdr5∆
  protein stability index: 2.13 ± 0.1
ubr1∆
  protein stability index: 1.55 ± 0.19

## FTKNEEKLLKELENNEF [ITC1]
doa10∆
  protein stability index: 2.26 ± 0.083
pdr5∆
  protein stability index: 2.28 ± 0.074
san1∆
  protein stability index: 2.27 ± 0.083
ubr1∆
  protein stability index: 2.24 ± 0.27

## GTLEYGTCFGGSKLEDM [RET1]
doa10∆
  protein stability index: 3.17 ± 0.072
pdr5∆
  protein stability index: 3.16 ± 0.072
san1∆
  protein stability index: 3.36 ± 0.061
ubr1∆
  protein stability index: 3.29 ± 0.065

## KARSPGIAKPNAIQTEV [SIR4]
doa10∆
  protein stability index: 3.36 ± 0.067
pdr5∆
  protein stability index: 3.35 ± 0.092
san1∆
  protein stability index: 3.18 ± 0.075
ubr1∆
  protein stability index: 3.22 ± 0.066

## VLKEKDVPAYNVTSFMP [SRB8]
doa10∆
  protein stability index: 3.11 ± 0.064
pdr5∆
  protein stability index: 3.01 ± 0.051
san1∆
  protein stability index: 3.03 ± 0.051
ubr1∆
  protein stability index: 3 ± 0.037

## ELQEKNVELLNCIRILA [YIL149C/MLP2]
doa10∆
  protein stability index: 2.19 ± 0.054
pdr5∆
  protein stability index: 1.95 ± 0.065
san1∆
  protein stability index: 1.73 ± 0.085
ubr1∆
  protein stability index: 1.68 ± 0.039

## RSRNGGATKIVREHYLR [DIS3]
doa10∆
  protein stability index: 3.21 ± 0.073
pdr5∆
  protein stability index: 3.36 ± 0.083
san1∆
  protein stability index: 3.36 ± 0.081
ubr1∆
  protein stability index: 3.2 ± 0.099

## RKFKSRRCDDMLYYIQN [POP4]
doa10∆
  protein stability index: 2.74 ± 0.069
pdr5∆
  protein stability index: 2.98 ± 0.088
san1∆
  protein stability index: 2.81 ± 0.062
ubr1∆
  protein stability index: 2.85 ± 0.048

## GIKATNGVVIATEKKSS [PRE8]
doa10∆
  protein stability index: 2.91 ± 0.18
pdr5∆
  protein stability index: 2.89 ± 0.17
san1∆
  protein stability index: 2.52 ± 0.26
ubr1∆
  protein stability index: 3.09 ± 0.11

## LTFQPQQQTNALNGIDI [GRR1]
doa10∆
  protein stability index: 2.84 ± 0.067
pdr5∆
  protein stability index: 3.07 ± 0.075
san1∆
  protein stability index: 3.02 ± 0.082
ubr1∆
  protein stability index: 3.1 ± 0.056

## KWDITTRNSNNLAIVEL [BRR2]
doa10∆
  protein stability index: 3.16 ± 0.071
pdr5∆
  protein stability index: 2.83 ± 0.059
san1∆
  protein stability index: 3.21 ± 0.051
ubr1∆
  protein stability index: 3.54 ± 0.064

## RINTLPQVQLPVRALIV [ECM29]
pdr5∆
  protein stability index: 1.93 ± 0.26

## SGDREVQRTMLELLNQL [RPT5]
doa10∆
  protein stability index: 3.28 ± 0.12
pdr5∆
  protein stability index: 2.73 ± 0.28
san1∆
  protein stability index: 3.12 ± 0.12
ubr1∆
  protein stability index: 3.21 ± 0.1
